{
  "source": "the RNAGym collection of RNA variant scans (doi:10.1073/pnas.2313332121)",
  "parents": {"B1": {"name": "TPR t1 (parent)", "chain": "GACCAAUCUGCCCUCAGAGCUCGAGAACAUCUUCGGAUGCAGAGGAGGCAGGCUUCGGUGGCGCGAUAGCGCCAACGUCCUCAACCUCCAAUGCAUCCCACCACAUGAUGAUGCCUGAAGAGCCUUGGUUUUUUG"}},
  "data": [
    {"variants_of": "B1", "assay": "polymerase ribozyme fitness, log enrichment relative to wild type (log ratio); higher = more active; in vitro selection for triplet polymerase activity", "in_short": "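After PCR construction and transcription, each subunit's mutant library from a heterodimeric triplet polymerase ribozyme was annealed with a biotinylated primer, the partner subunit and triplets. Incubation was frozen, at −7 °C, and extended constructs were gel-excised, bound to streptavidin beads and amplified by RT-PCR, in one selection round done in triplicate. Fitness is the logarithm of a genotype's enrichment divided by that of the wild type, from inverse-variance-weighted replicate averages of Illumina-sequenced inputs and outputs. The base of the logarithm is 2, and genotypes needed ≥10 input reads and ≥1 read per output.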", "values": [
      {"variant": "C40A C79A", "polymerase ribozyme fitness (log ratio)": -2.9},
      {"variant": "G39U G45A", "polymerase ribozyme fitness (log ratio)": -2.22},
      {"variant": "G39U G61A C101U G117A A118G U125A", "polymerase ribozyme fitness (log ratio)": -0.872},
      {"variant": "C40U G71A U81C A95U", "polymerase ribozyme fitness (log ratio)": -3},
      {"variant": "C40G G45A A46C G51C G58A G63C G110A G113U G117C", "polymerase ribozyme fitness (log ratio)": -7.24},
      {"variant": "A41C C80U C115U", "polymerase ribozyme fitness (log ratio)": -3.59},
      {"variant": "G39U C49A C72A G93C A95C C115U", "polymerase ribozyme fitness (log ratio)": -5.1},
      {"variant": "A41G A50C G77A U116C", "polymerase ribozyme fitness (log ratio)": -3.42},
      {"variant": "G39C C97A", "polymerase ribozyme fitness (log ratio)": -5.8},
      {"variant": "C40G U116C", "polymerase ribozyme fitness (log ratio)": -2.34},
      {"variant": "G39U C70U A103C C114U A119U G120A U130A", "polymerase ribozyme fitness (log ratio)": -5.71},
      {"variant": "C40A C89G C94A", "polymerase ribozyme fitness (log ratio)": -4.16},
      {"variant": "C40G A111G", "polymerase ribozyme fitness (log ratio)": -0.323},
      {"variant": "C40G A111C", "polymerase ribozyme fitness (log ratio)": -0.485},
      {"variant": "G39C C88U G135U", "polymerase ribozyme fitness (log ratio)": -2.39},
      {"variant": "G39C C49U", "polymerase ribozyme fitness (log ratio)": -1.61},
      {"variant": "G39C G48A C49U C89A", "polymerase ribozyme fitness (log ratio)": -4.19},
      {"variant": "G39U C62U", "polymerase ribozyme fitness (log ratio)": -1.71},
      {"variant": "C40A A43U C70U C86U G93U C97G G135C", "polymerase ribozyme fitness (log ratio)": -6.34},
      {"variant": "G39A C49A", "polymerase ribozyme fitness (log ratio)": -0.508},
      {"variant": "C40G C62A", "polymerase ribozyme fitness (log ratio)": -1.9},
      {"variant": "G39U C124A", "polymerase ribozyme fitness (log ratio)": 0.161},
      {"variant": "G39U C101G", "polymerase ribozyme fitness (log ratio)": -3.29},
      {"variant": "C40G A43U U112G A119U U126A", "polymerase ribozyme fitness (log ratio)": -4.57},
      {"variant": "A41C G117U C123A C124G", "polymerase ribozyme fitness (log ratio)": -3.97},
      {"variant": "C40G C70A", "polymerase ribozyme fitness (log ratio)": -3.86},
      {"variant": "G39C U54A A74G", "polymerase ribozyme fitness (log ratio)": -0.531},
      {"variant": "C40G C56G C70A", "polymerase ribozyme fitness (log ratio)": -4.24},
      {"variant": "C40G G45U C88G U92A", "polymerase ribozyme fitness (log ratio)": -4.08},
      {"variant": "G39C U109A G110U", "polymerase ribozyme fitness (log ratio)": -3.37},
      {"variant": "C40G C80U G122U", "polymerase ribozyme fitness (log ratio)": -3.37},
      {"variant": "C40A G93A A111C", "polymerase ribozyme fitness (log ratio)": -1.04},
      {"variant": "C40U G60C G135U", "polymerase ribozyme fitness (log ratio)": -1.79},
      {"variant": "C40G G61C G69U", "polymerase ribozyme fitness (log ratio)": -2.88},
      {"variant": "G39U G61C U130G", "polymerase ribozyme fitness (log ratio)": -2.15},
      {"variant": "G39A G48C", "polymerase ribozyme fitness (log ratio)": -1.23},
      {"variant": "G39C G71U", "polymerase ribozyme fitness (log ratio)": -0.983},
      {"variant": "U38G G69U", "polymerase ribozyme fitness (log ratio)": -0.236},
      {"variant": "C40U G110C", "polymerase ribozyme fitness (log ratio)": -4.3},
      {"variant": "C40U G110A", "polymerase ribozyme fitness (log ratio)": -1.7},
      {"variant": "C40U G51A G60U C82G U96A U116G", "polymerase ribozyme fitness (log ratio)": -6.02},
      {"variant": "C40A G135U", "polymerase ribozyme fitness (log ratio)": -2.63},
      {"variant": "A41C G44U U87C", "polymerase ribozyme fitness (log ratio)": -1.33},
      {"variant": "G39A G45C G60U G69U C82U", "polymerase ribozyme fitness (log ratio)": -5.66},
      {"variant": "C40G G113A", "polymerase ribozyme fitness (log ratio)": -0.856},
      {"variant": "G39A G48A C56G G69U A105C", "polymerase ribozyme fitness (log ratio)": -2.52},
      {"variant": "G39C C86U", "polymerase ribozyme fitness (log ratio)": -2.09},
      {"variant": "C40A C64U C80U", "polymerase ribozyme fitness (log ratio)": -2.24},
      {"variant": "G39A A43U C72U C73G C115G U126C", "polymerase ribozyme fitness (log ratio)": -5.51},
      {"variant": "A41C C89G", "polymerase ribozyme fitness (log ratio)": -3.37},
      {"variant": "A41C C89U", "polymerase ribozyme fitness (log ratio)": -0.432},
      {"variant": "U38G U54G C64U", "polymerase ribozyme fitness (log ratio)": -4.46},
      {"variant": "C40U G63A", "polymerase ribozyme fitness (log ratio)": -1.95},
      {"variant": "C40U G63U", "polymerase ribozyme fitness (log ratio)": -1.68},
      {"variant": "G39U G48U", "polymerase ribozyme fitness (log ratio)": -1.59},
      {"variant": "G39A G110U", "polymerase ribozyme fitness (log ratio)": -2.32},
      {"variant": "C40G A100C", "polymerase ribozyme fitness (log ratio)": -2.29},
      {"variant": "C40G C56U", "polymerase ribozyme fitness (log ratio)": -1.79},
      {"variant": "C40U C53U A75G C82U", "polymerase ribozyme fitness (log ratio)": -0.592},
      {"variant": "C40A C85A", "polymerase ribozyme fitness (log ratio)": -1.95},
      {"variant": "G39U G63C A91C G113U A121C", "polymerase ribozyme fitness (log ratio)": -3.83},
      {"variant": "C40G G51A A68G", "polymerase ribozyme fitness (log ratio)": -6.59},
      {"variant": "C40A C114G", "polymerase ribozyme fitness (log ratio)": -3.8},
      {"variant": "C40U G52A G60U A91U U109A", "polymerase ribozyme fitness (log ratio)": -6.64},
      {"variant": "G39A G128A", "polymerase ribozyme fitness (log ratio)": -2.58},
      {"variant": "C40U A43C G93C C115A", "polymerase ribozyme fitness (log ratio)": -2.74},
      {"variant": "A41C G69U U92C", "polymerase ribozyme fitness (log ratio)": -0.226},
      {"variant": "A41G A46U C123U", "polymerase ribozyme fitness (log ratio)": -2.51},
      {"variant": "C40G U55G G71A C85A", "polymerase ribozyme fitness (log ratio)": -3.12},
      {"variant": "G39U C49A C80U", "polymerase ribozyme fitness (log ratio)": -3.62},
      {"variant": "G39U G45C U87A C114U", "polymerase ribozyme fitness (log ratio)": -6.43},
      {"variant": "G39A A46U U106A", "polymerase ribozyme fitness (log ratio)": -2.02},
      {"variant": "A41C G42U G71A U81C", "polymerase ribozyme fitness (log ratio)": -4.72},
      {"variant": "C40U C98A", "polymerase ribozyme fitness (log ratio)": -5},
      {"variant": "U38G C49G", "polymerase ribozyme fitness (log ratio)": -2.14},
      {"variant": "G39C C101A", "polymerase ribozyme fitness (log ratio)": -1.69},
      {"variant": "G39U C115G", "polymerase ribozyme fitness (log ratio)": -2.58},
      {"variant": "C40U G44U C49U C53A A84C C86G G113C U125C", "polymerase ribozyme fitness (log ratio)": -3.99},
      {"variant": "G39U G120A", "polymerase ribozyme fitness (log ratio)": -0.0767},
      {"variant": "A41C G51A C114G", "polymerase ribozyme fitness (log ratio)": -6.23},
      {"variant": "C40A G77A A84U C94U U106A", "polymerase ribozyme fitness (log ratio)": -2.81},
      {"variant": "G39A G61A", "polymerase ribozyme fitness (log ratio)": -0.128},
      {"variant": "A41C G60C C101G U126G U132C", "polymerase ribozyme fitness (log ratio)": -4.76}
    ]}
  ]
}
